According to paper PMC10419091:

Legend:
[1] = target: filamentous actin (F-actin) from rabbit m. psoas (rabbit) (UniProt P68135); assay: co-sedimentation; 10 µM F-actin with 0.5 to 7.5 µM Tpm in 30 mM Hepes-Na pH 7.3, 200 mM NaCl; 40 min at 25 °C, then 40 min at 100,000 g at 4 °C; supernatants and pellets by SDS-PAGE; apparent affinity (K50%: Tpm concentration at which half of the actin is saturated)
[2] = target: filamentous actin (F-actin) from rabbit m. psoas (rabbit) (UniProt P68135); assay: temperature dependence of light scattering; thermally induced dissociation of Tpm from phalloidin-stabilized F-actin; 20 µM F-actin, 10.5 µM Tpm, 30 mM Hepes-Na pH 7.3, 100 mM NaCl; light scattering at 90°, 350 nm, heating 1 °C/min; Tdiss: temperature of a 50% decrease
[3] = viscosimetry; falling-ball micro-viscometer, 20 °C; Tpm 2 mg/mL in 30 mM Hepes-Na pH 7.3, 100 mM NaCl, 4 mM DTT; viscosity over buffer viscosity; end-to-end interaction of adjacent Tpm molecules; conditions: other: viscosimetry

K50% [1] [µM] | Tdiss [2] [°C] | Substance | viscosity after subtraction of the buffer viscosity [3] [mPa∙s]
2.45 | 45.5 | wild-type cardiac tropomyosin 1.1 isoform (Tpm1.1), recombinant, with Ala-Ser N-terminal extension (natural protein) | 
 |  | human E98K Tpm1.1 mutant (cardiac tropomyosin 1.1 with Glu98Lys), recombinant, with Ala-Ser N-terminal extension | 0.28 ± 0.01
 |  | wild-type cardiac tropomyosin 1.1 isoform (Tpm1.1), recombinant, with Ala-Ser N-terminal extension | 0.31 ± 0.01
2.57 | 42.4 | human E98K Tpm1.1 mutant (cardiac tropomyosin 1.1 with Glu98Lys), recombinant, with Ala-Ser N-terminal extension (natural protein) | 
